# Reference: the nanobody polyreactivity screen of Harvey et al. (2022)
# Assay: yeast display, Sf9 membrane polyspecificity reagent, FACS + sequencing; frameworks hold sequencing errors
# Method in brief: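 Sorting gates, low and high (top ~1%), were placed on anti-HA fluorescence to track expression and on streptavidin fluorescence to track reagent binding. A clone's polyreactivity label is taken from the gate it came out of. The reagent was 10% biotinylated, detergent-solubilized Sf9 membrane, applied for 1 hour at 4 °C to galactose-induced yeast display cells.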
row,Sequence,polyreactivity (PSR sort gate)
1,QVQLVESGGGLVQAGGSLRLSCAASGSIFFVYAMGWYTQAPGKERELVAGIRWSGGRTSYADSVKGRFTISRDNAKNTVYLQMNSLNQEDTAVYYCAAGCGVLPQQHYYYRYDYWGQGTQVTVSS,high polyreactivity
2,QVQLVESGGGLVQAGGSLRLSCAASGSIFFWNDMGWYRQAPGKERELVAAISWSGGSTSYADSVKGRFTISRDNAKNTVYLQMNSLKPEDTAVYYCAAEYTYGSPYDYWGQGTQVTVSS,low polyreactivity
3,QVQLVESGGGLVQAGGSLRLSCAASGSIFFYAMGWYRQAPGKERELVADITYTGGSKYADSVKGRFSISRDNAKNTVYLQMNSLKTEDTAVYYCAKLDGGLFDYWGQGTQVTVSS,low polyreactivity
4,QVQLVESGGGLVQAGGSLRLSCAASGSIFFYNTMGWYRQAPGKERELVAAISASGGRTYYADSVKGRFTISRDYSKNTVYLQMNSLKPEDTAVYYCAVRVPYRGYTRYDYWGHGTQVTVSS,high polyreactivity
5,QVQLVESGGGLVQAGGSLRLSCAASGSIFFYYAMGWYRQAPGKERELVATITSGGSTSYADSVKGRFTISRDNAKNTVFLQMNSLKPEDTAVYYCAARKVTKSTYNYWGQGTQVTVSS,low polyreactivity
6,QVQLVESGGGLVQAGGSLRLSCAASGSIFFYYAMGWYSQAPGTERELVAAIRNGGSTKYADSVKGRFTISRDNAKNTVYLQMNSLKPEDTAVYYCAAGYPVTRRTIRFDYWGQGTQVTVSS,high polyreactivity
7,QVQLVESGGGLVQAGGSLRLSCAASGSIFGAYAMGWSRQAPGKERELVAAISGSGTSTYYADSVKGRFTISRDNAKNTVYLQMNSLKQEDTAVYYCAADGTYFYIYLGDRFDYWGQGTQVTVSS,low polyreactivity
8,QVQLVESGGGLVQAGGSLRLSCAASGSIFGAYAMGWYRQAPGKERELVAAISRSGSTTYYADSVKGRFTISRDNAKNTVYLQMNSLKPEDTAVYYCAARWTRFLSSSDYYYWGQGTQVTVSS,high polyreactivity
9,QVQLVESGGGLVQAGGSLRLSCAASGSIFGAYAMGWYRQAPGKERELVATITLRDGSTYYADSVKGRFTISRDNAKNTVYLQMNSLKPEDTAVSYCATYYSAINYGWSKTILYDYWGQGTQVTVSS,low polyreactivity
10,QVQLVESGGGLVQAGGSLRLSCAASGSIFGDNAMGWSRQAPGKERDLVAAISSGGPTYADSVKGRFTISRDYAKNTVYLLMNSLKPEDTAVYYCNATDGMTPYDLTDIEFDYWGQGTHVTVSS,low polyreactivity
11,QVQLVESGGGLVQAGGSLRLSCAASGSIFGDNAMGWYRQAPGKERELVAAISSSGGSTYADSVKGRFTISRDNAKNTVYLQMNSLKPEDTAVYYCATQIAWGTYVINPQMDYWGQGTQVTVSS,low polyreactivity
12,QVQLVESGGGLVQAGGSLRLSCAASGSIFGDNAMGWYRQAPGKERELVAAISTRGGRTYYADSVKGRFTISRDNAKNTVYLQMNSLKPEDSAVYYCATSGGRPYKYEYWGQGTQVTVSS,high polyreactivity
13,QVQLVESGGGLVQAGGSLRLSCAASGSIFGDNAMGWYRQAPGKERELVATISSSDASTYYADSVKGRFTISRDNAKKTVYLQMNSLKPEDTAVYYCAAARSGGYDYWGQGTQVTVSS,low polyreactivity
14,QVQLVESGGGLVQAGGSLRLSCAASGSIFGDYDMGWYRQAPGKERELVAAINRGGSTYYADSVKGRFTMSRDNAKNTVYLQMISLKPEDTAVYYCAAGYPSWYYGYAYDSWGQGTQVTVSS,low polyreactivity
15,QVQLVESGGGLVQAGGSLRLSCAASGSIFGEYAMGWYRQAPGKERELVADITTGGNTNYADSVKGRFTISRDNAKNTVYLQMNSLKPEDSAVYYCYAFGNTYGYWWFGYWGQGTQVTVSS,low polyreactivity
16,QVQLVESGGGLVQAGGSLRLSCAASGSIFGFNAMGWYRQAPGKERELVAAINNGGSTNYADSVKGRFTISRDNAKNTVYLQMNSLKPEDTAVYYCAVGTLTYEGFRTYYYWGQGTQVTVSS,high polyreactivity
17,QVQLVESGGGLVQAGGSLRLSCAASGSIFGFYAMGWYRQAPGKERELVAAITRSGDSTYADSVKGRFTISRDNAKNTVYLQMNSLKPEDTAVYYCATYWQYRYDYWGQGTQVTVSS,low polyreactivity
18,QVQLVESGGGLVQAGGSLRLSCAASGSIFGFYAMGWYRQAPGKEREMVAAITRSGDSTYADSVKGRFTISRDNAKNTVYLQMNSLKPEDTAVYYCADDIDRSDVNSESYDYDYWGQGTQVTVSS,low polyreactivity
19,QVQLVESGGGLVQAGGSLRLSCAASGSIFGFYDMGWYRQAPGKERELVAAITTGGSTYYADSVKGRFTISRDNAKNTVYLQMNSLKPEDTAVYYCAKERWFPYERNDYWGQGTQVTVSA,low polyreactivity
20,QVQLVESGGGLVQAGGSLRLSCAASGSIFGGNAMGWYRPAPGKERELVAGISTSGGSTYYADSVKGRFTISRDNAKNTVYLQMNSLKPEDTAVYYCARGLGTYPQYWWFGTPGLDYWGQGTQVTVSS,low polyreactivity
21,QVQLVESGGGLVQAGGSLRLSCAASGSIFGGNAMGWYRQAAGKERELVAAITQSGGRTYYADSVKGRFTISRDNAKNTVYLQMNSLKPEDTAVYYCNRVYKSQTTDSFPLSYYYWGQGTQVTVSS,high polyreactivity
22,QVQLVESGGGLVQAGGSLRLSCAASGSIFGGYAMGWYRQAPGKERELVARITDRGGSTDYADSVKGRFTISRDNAKNTVYLQMNSLTPEDTAVYYCAKRGDRYEKRPRDYWGQGTQVTVSS,low polyreactivity

row,Sequence,polyreactivity (PSR sort gate)
1,QVQLVESGGGLVQAGGSLRLSCAASGSIFGGYDMGWYRQAPGKESELVASISGSSSTYYADSVKGRFTISRDNAKNTVYFQMNSLKPEDTAVYYCAVDYHQAWPSADYWFEYDYWGQGTQVTVSS,low polyreactivity
2,QVQLVESGGGLVQAGGSLRLSCAASGSIFGGYGMGCYRQAPGKERALVAAITSGSSTYYADSVKGRFTISRDNAKKTVYLQMPSLTPEDTAGYYCNADYAYYRDVYSPYDSWGQGTQVTVSS,low polyreactivity
3,QVQLVESGGGLVQAGGSLRLSCAASGSIFGGYGMGWYRQAPGKERELVAAITSGSSTYYADSVKGRFTISRDNAKNTVYLQMNSLKAEDTAVYYCAARPYTHSAYEGDYWGRGTQVTVSS,low polyreactivity
4,QVQLVESGGGLVQAGGSLRLSCAASGSIFGGYGMGWYRQAPGKERELVAAITSGSSTYYADSVKGRFTISRDNAKNTVYLQMNSLKPEDTAVYNCAARPYPHSAYEGDYWGRGTQVTVSS,low polyreactivity
5,QVQLVESGGGLVQAGGSLRLSCAASGSIFGGYTMGWYRQAPGKERKLVAAISRRGGNTYYADSVKGRFTISRDNAKNTVYLLMNSLKPEDTAVYYCAVRWPSARIPVKLDYWGQGTQVTVSS,high polyreactivity
6,QVQLVESGGGLVQAGGSLRLSCAASGSIFGINAMGWYRQAPGKERELVAAISGSTSRTYYADSVKGRFTISRDNAKNTVYLQMNSLKPEDTAVYYCAVVGLRSVTRRSYYWGQGTQVTVSS,high polyreactivity
7,QVQLVESGGGLVQAGGSLRLSCAASGSIFGISTMGWYRQAPGKERELVAAITSGDRTSYADSVKGRFTISRDNAKNTVYLQMNTLKPEDTAVYYCARDYYSYRYLRYDYWGQGTQVTVSS,low polyreactivity
8,QVQLVESGGGLVQAGGSLRLSCAASGSIFGIYAMGWYRQAPGKERELVAAISWSGGSTYYADSVKGRFTISRDNAKNTVYLQMNSLKPEDTAVYYCNADVQLFGWWYGMDYWGQGTQVTVSS,high polyreactivity
9,QVQLVESGGGLVQAGGSLRLSCAASGSIFGKNAMGWYRQAPGKERELVAAISFSGGSTYYADSVKGRFTISRDNAKNTVYLQMNSLKPEDTAVYYCAARKYSWYPAGGYDYWGQGTQVTVSS,high polyreactivity
10,QVQLVESGGGLVQAGGSLRLSCAASGSIFGLYAMGWYRPAPGKEREFVATISKSGVSTYYADSVKGRFTISRDNAKNTVYLQMNSLKPEDTALYYCNADISRDNDFDYWGQGTQVTVSS,low polyreactivity
11,QVQLVESGGGLVQAGGSLRLSCAASGSIFGLYAMGWYRQAAGKERELVAAISASGGSTYYADSVKGRFTISRDNAKNTVYLQMNSLKPEDTAVYYCAVKWRGGPQRGFNYWGQGTQVTVSS,high polyreactivity
12,QVQLVESGGGLVQAGGSLRLSCAASGSIFGLYAMGWYRQAPGKERELVAAINQSGGSTSYADSVKGRFTISRDNAKNTVYLQMNSLKPEDTAVYYCAADSAFYTGSDYGWSDYDYWGQGTQVTVSS,low polyreactivity
13,QVQLVESGGGLVQAGGSLRLSCAASGSIFGLYAMGWYRQAPGKERELVAAITWSSGNTYYADSVKGRFTISRDNAKNTVYLQMYSLKPEDTAVYYCAATSVSISYRYDYWGQGTQVTVSS,high polyreactivity
14,QVQLVESGGGLVQAGGSLRLSCAASGSIFGNAMGWYRPAPGKERELVAAISRRGGRTYYADSVKGRFTISRDNAKNTVYLQMNSLKPEDTAVYYCANTAKTWGWWLRGYGYWGQGTQVTVSS,high polyreactivity
15,QVQLVESGGGLVQAGGSLRLSCAASGSIFGNAMGWYRQAPGKEREFVAAISSSGSSTYYADSVKGRFTISRDNAKNTVYLQMNSLKPEDTAVYYCANRRRSAAPKYDYWGQGTQVTVSS,high polyreactivity
16,QVQLVESGGGLVQAGGSLRLSCAASGSIFGNTMGWYRQAPGKEWEFVAAISSTGGNTYYADSVKGRFTISRDNAKITVYLQMNSLKPEDTAVYYCNRRYRYRFGYWGQGTQVTVSS,high polyreactivity
17,QVQLVESGGGLVQAGGSLRLSCAASGSIFGPNAMGWYRQAPGKERELVAAISKSGSSTYYADSVKGRFTISRDNAKNTVYLQMNSLKREDTAVYYCAAKVSYSGVFSYYYWGQGTQVTVSS,high polyreactivity
18,QVQLVESGGGLVQAGGSLRLSCAASGSIFGPYAMGWYRQAPGKERELVAAISKGGGSTYYADSVKGRFTISRDNAKNTVYLQMNSLKPDDTAVYYCAADQDKPYDHWGQGTQVTVSS,low polyreactivity
19,QVQLVESGGGLVQAGGSLRLSCAASGSIFGPYAMGWYRQAPGKERELVAANTWTGGRTYYSDSVKGRFTISRDNAKNTVYLQMNSLKPEDTAVYYCAVRHRYTRAYWGRDYWGQGTQVTVSS,low polyreactivity
20,QVQLVESGGGLVQAGGSLRLSCAASGSIFGPYAMGWYRQAPGKERELVADIRTSGGGTYYADSVKGRFTISRDNAKNTVYLQMNSLKPEDTAVYYCNADPKWEMGSWGQGTQVTVSS,low polyreactivity
21,QVQLVESGGGLVQAGGSLRLSCAASGSIFGPYAMGWYRQAPGKERELVASITNSGSTYYADSVKGRFTISRDNAKNTVYLQMNSLKPEDTAVYYCAVDERTWINDPEEYDYWGQGTQVTVSS,low polyreactivity
